Measured values as given in patent US20080234198A1 (Eli Lilly, published 2008).

T1: human VPAC2 receptor (human, UniProt P41587 24-438)
T1 sequence (looked up): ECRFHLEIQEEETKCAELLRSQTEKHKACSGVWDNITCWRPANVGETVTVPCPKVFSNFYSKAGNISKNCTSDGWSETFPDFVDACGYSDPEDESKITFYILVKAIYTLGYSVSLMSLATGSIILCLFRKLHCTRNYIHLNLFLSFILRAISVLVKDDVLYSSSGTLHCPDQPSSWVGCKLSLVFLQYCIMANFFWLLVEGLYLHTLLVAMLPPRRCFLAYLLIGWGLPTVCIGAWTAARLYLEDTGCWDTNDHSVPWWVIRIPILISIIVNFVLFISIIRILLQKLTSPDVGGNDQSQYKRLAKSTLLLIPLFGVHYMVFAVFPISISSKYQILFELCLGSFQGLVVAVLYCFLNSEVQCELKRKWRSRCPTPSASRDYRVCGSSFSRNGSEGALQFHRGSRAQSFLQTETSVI

T2: rat VPAC1 receptor (rat, UniProt P30083 31-459)
T2 sequence (looked up): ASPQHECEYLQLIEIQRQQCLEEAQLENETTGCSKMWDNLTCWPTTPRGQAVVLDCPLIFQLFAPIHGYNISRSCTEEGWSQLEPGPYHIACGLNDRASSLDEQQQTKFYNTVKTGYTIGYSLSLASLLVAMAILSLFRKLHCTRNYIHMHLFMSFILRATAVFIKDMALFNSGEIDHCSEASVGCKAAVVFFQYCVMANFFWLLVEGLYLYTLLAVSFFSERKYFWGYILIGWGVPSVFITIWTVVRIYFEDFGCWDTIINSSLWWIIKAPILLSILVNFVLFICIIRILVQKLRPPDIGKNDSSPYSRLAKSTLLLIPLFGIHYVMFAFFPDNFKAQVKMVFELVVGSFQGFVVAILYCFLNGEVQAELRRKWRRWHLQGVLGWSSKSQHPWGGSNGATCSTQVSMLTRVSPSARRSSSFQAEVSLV

T3: rat VPAC2 receptor (rat, UniProt P35000 23-437)
T3 sequence (looked up): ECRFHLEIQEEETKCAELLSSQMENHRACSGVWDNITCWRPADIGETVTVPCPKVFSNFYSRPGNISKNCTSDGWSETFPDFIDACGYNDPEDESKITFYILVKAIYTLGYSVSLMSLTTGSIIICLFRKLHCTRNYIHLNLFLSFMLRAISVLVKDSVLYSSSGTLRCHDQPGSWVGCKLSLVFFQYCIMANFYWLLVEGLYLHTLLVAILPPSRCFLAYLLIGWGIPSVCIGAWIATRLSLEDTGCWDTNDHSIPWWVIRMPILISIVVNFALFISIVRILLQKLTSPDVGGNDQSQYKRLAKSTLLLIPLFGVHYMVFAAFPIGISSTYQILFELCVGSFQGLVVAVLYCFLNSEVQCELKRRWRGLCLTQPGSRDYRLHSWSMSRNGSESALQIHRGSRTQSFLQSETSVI


How the values were obtained:
human VPAC2 receptor [1] = target: T1, human VPAC2 receptor; assay: cell-based or functional assay
rat VPAC1 receptor = target: T2, rat VPAC1 receptor; assay: cell-based or functional assay
rat VPAC2 receptor = target: T3, rat VPAC2 receptor; assay: cell-based or functional assay
human VPAC2 receptor [2] = target: T1, human VPAC2 receptor; assay: filter binding, VPAC2 cell membranes, displacement of 125I-VIP
Experimental: Binding assays: Membrane prepared from a stable VPAC2 cell line (see Example 3) or from cells transiently transfected with human VPAC1 or PAC1 are used.
The assay plate is filled with 25 μL assay buffer, 25 μL membranes (2.5 μg) suspended in assay buffer, 25 μL agonist in assay buffer, and 25 μL tracer (about 40000 cpm) in assay buffer. The filled plate is incubated for 1 hour with shaking.
The transfer from assay plate to filter plate is conducted. The blocking buffer is aspirated by vacuum filtration and washed two times with flush buffer. 90 μL is transferred from the assay plate to the filter plate. The 90 μL transferred from assay plate is aspirated and washed three times with 200 μL flush buffer. The plastic support is removed. It is dried for 1 hour at 60° C. 30 μL Microscint is added. The count is performed.

| Binder | Human VPAC2 Receptor: Alphascreen (EC50; nM) (human VPAC2 receptor [1]) | Rat VPAC1 Receptor: DiscoveRx: (EC50; nM) (rat VPAC1 receptor) | Rat VPAC2 Receptor: DiscoveRx: (EC50; nM) (rat VPAC2 receptor) | IC50 (human VPAC2 receptor [2]) | Human VPAC2 Receptor: DiscoveRx (EC50; nM) (human VPAC2 receptor [1]) |
| --- | --- | --- | --- | --- | --- |
| HSDAVFTEQYTXLRXQVAAXXYLQSIXXXGGPSSGAPPPS (not fully specified; C6-HSDAVFTEQY(OMe)TOrnLRAibQVAAAibOrnYLQSIOrnK(WPEG40K)OrnGGPSSGAPPPS-NH2) [P454] | 59.9 nM | 1230 nM | 79.6 nM | 36.6 nM | – |
| HSDAVFTEQYTXLRXQVAAXXYLQSIXCXGGPSSGAPPPC (C6-HSDAVFTEQY(OMe)TOrnLRAibQVAAAibOrnYLQSIOrnC(PEG20K)OrnGGPSSGAPPPC(PEG20K)-NH2) [P505] | 40.5 nM | 639 nM | 42.6 nM | 26.1 nM | – |
| HSDAVFTEQYTXLRXQVAAXXYLQSIXXXGGPSSGAPPPC (C6-HSDAVFTEQY(OMe)TOrnLRAibQVAAAibOrnYLQSIOrnK(CO(CH2)2SPEG20K)OrnGGPSSGAPPPC(PEG20K)-NH2) [P499] | 57.7 nM | 804 nM | 68.2 nM | 34 nM | – |
| HSDAVFTEQYTXLRXQLAXXXYLQXIXXGGPSSGAPPPCC (C6-HSDAVFTEQY(OMe)TOrnLRAibQLAAbuAibOrnYLQAibIOrnOrnGGPSSGAPPPC(PEG20K)C(PEG20K)-NH2) [P517] | 7.5 nM | 92.4 nM | 10 nM | 3.7 nM | – |
| HSDAVFTEQYTXLRXQLAAXXYXQSIXXGGPSSGAPPPCC (C6-HSDAVFTEQY(OMe)TOrnLRAibQLAAAibOrnYAibQSIOrnOrnGGPSSGAPPPC(PEG20K)C(PEG20K)-NH2) [P513] | 28.9 nM | – | – | 50.5 nM | – |
| HSDAVFTEQYTXLRXQLAAXXYXQXIXXGGPSSGAPPPCC (C6-HSDAVFTEQY(OMe)TOrnLRAibQLAAAibOrnYAibQAibIOrnOrnGGPSSGAPPPC(PEG20K)C(PEG20K)-NH2) [P519] | 30.3 nM | – | – | 51.6 nM | – |
| HSDAVFTEQYTXLRXQLAXXXYXQSIXXGGPSSGAPPPCC (C6-HSDAVFTEQY(OMe)TOrnLRAibQLAAbuAibOrnYAibQSIOrnOrnGGPSSGAPPPC(PEG20K)C(PEG20K)-NH2) [P521] | 22.1 nM | 602 nM | 33.1 nM | 67.1 nM | – |
| HSDAVFTEQYTXXRXQVAAXXYLQSIXXGGPSSGAPPPS (C6-HSDAVFTEQY(OMe)TOrnK(CO(CH2)2SPEG20K)RAibQVAAAibOrnYLQSIOrnOrnGGPSSGAPPPS-NH2) [P470] | 83.3 nM | > 1000 nM | 111 nM | 263 nM | – |
| HSDAVFTEQYTXLRXQVAAXXYLQSXXXGGPSSGAPPPC (C6-HSDAVFTEQY(OMe)TOrnLRAibQVAAAibOrnYLQSK(CO(CH2)2SPEG20K)OrnOrnGGPSSGAPPPC(PEG20K)-NH2) [P497] | 176 nM | > 1000 nM | 345 nM | 146 nM | – |
| HSDAVFTEQYTXLRXQCAXXXYLQXIXXGGPSSGAPPPS (C6-HSDAVFTEQY(OMe)TOrnLRAibQC(PEG40K)AAbuAibOrnYLQAibIOrnOrnGGPSSGAPPPS-NH2) [P545] | 45 nM | 380 nM | 99.5 nM | 79.9 nM | – |
| HSDAVFTEQYTXLRXQVAXXXYLQSIXXGGPSSGAPPPC (C6-HSDAVFTEQY(OMe)TOrnLRAibQVAK(CO(CH2)2SPEG20K)AibOrnYLQSIOrnOrnGGPSSGAPPPC(PEG20K)-NH2) [P492] | 510 nM | > 4000 nM | 963 nM | 156 nM | – |
| HSDAVFTEQYTXLRXQVAAXXYLQXIXXGGPSSGAPPPC (C6-HSDAVFTEQY(OMe)TOrnLRAibQVAAAibOrnYLQAibIOrnOrnGGPSSGAPPPC(PEG40K)-NH2) [P509] | 13 nM | 328 nM | 28.2 nM | 11.2 nM | – |
| HSDAVFTEQYTXLRXQXAAXXYLQSIXXGGPSSGAPPPS (C6-HSDAVFTEQY(OMe)TOrnLRAibQK(WPEG40K)AAAibOrnYLQSIOrnOrnGGPSSGAPPPS-NH2) [P533] | 2380 nM | – | – | – | – |
| HSDAVFTEQYTXLRXQVAAXXYLQSIXXGGPSSGAPPPS (C6-HSDAVFTEQY(OMe)TOrnLRAibQVAAAibK(W-PEG40K)YLQSIOrnOrnGGPSSGAPPPS-NH2) [P410] | 129 nM | > 1000 nM | 318 nM | 264 nM | – |
| HSDAVFTEQYTXLRXQVAAXXYLQXIXXGGPSSGAPPPC (C6-HSDAVFTEQY(OMe)TOrnLRAibQVAAAibOrnYLQK(CO(CH2)2SPEG20K)IOrnOrnGGPSSGAPPPC(PEG20K)-NH2) [P495] | 117 nM | – | – | 142 nM | – |
| HSDAVFTEQYTXLRXQVAAXXYLQSXXXGGPSSGAPPPS (C6-HSDAVFTEQY(OMe)TOrnLRAibQVAAAibOrnYLQSK(WPEG40K)OrnOrnGGPSSGAPPPS-NH2) [P535] | 98.4 nM | > 1000 nM | 318 nM | 145 nM | – |
| HSDAVFTEQYTXLRXQVCAXXYLQSIXXGGPSSGAPPPS (C6-HSDAVFTEQY(OMe)TOrnLRAibQVC(PEG40K)AAibOrnYLQSIOrnOrnGGPSSGAPPPS-NH2) [P478] | 49.9 nM | 2050 nM | 120 nM | 30 nM | – |
| HSDAVFTEQYTXLRXQLAXXXYLQXCXXGGPSSGAPPPS (C6-HSDAVFTEQY(OMe)TOrnLRAibQLAAbuAibOrnYLQAibC(PEG40K)OrnOrnGGPSSGAPPPS-NH2) [P541] | 45.8 nM | 665 nM | 102 nM | 59.8 nM | – |
| HSDAVFTEQYTXLRXQVAXXXYLQXIXXGGPSSGAPPPC (C6-HSDAVFTEQY(OMe)TOrnLRAibQVAAbuAibOrnYLQAibIOrnOrnGGPSSGAPPPC(PEG40K)-NH2) [P511] | 7.6 nM | 61.9 nM | 13.9 nM | 7.2 nM | – |
| HSDAVFTEQYTXLRXQVAAXXYLCSIXXGGPSSGAPPPC (C6-HSDAVFTEQY(OMe)TOrnLRAibQVAAAibOrnYLC(PEG20K)SIOrnOrnGGPSSGAPPPC(PEG20K)-NH2) [P501] | 131 nM | > 1000 nM | 272 nM | 111 nM | – |
| HSDAVFTEQYTXLRXQLAXXXYLQSCXXGGPSSGAPPPS (C6-HSDAVFTEQY(OMe)TOrnLRAibQLAAbuAibOrnYLQSC(PEG40K)OrnOrnGGPSSGAPPPS-NH2) [P543] | 84.2 nM | 355 nM | 101 nM | 56.3 nM | 8.9 nM |
| HSDAVFTEQYTXLRXQVAAXXYLQSCXXGGPSSGAPPPC (C6-HSDAVFTEQY(OMe)TOrnLRAibQVAAAibOrnYLQSC(PEG20K)OrnOrnGGPSSGAPPPC(PEG20K)-NH2) [P503] | 147 nM | > 4000 nM | 520 nM | 41.5 nM | – |
